The results in this text go back to the supplement of paper PMC5998384.

Series [1] deals with HeLa Kyoto. Nature of the series: solubility in G1/S (NP-40 vs SDS abundance) (log2 ratio); higher = more soluble. The conditions noted are these: cell cycle stage: G1/S.
Series [2] concerns HeLa Kyoto. Nature of the series: melting temperature (median over replicates), in situ; higher = more thermally stable.
Series [3] has as its system HeLa Kyoto. Description: thermal stability score vs G1/S (z-score of summed log2 fold changes over temperatures); higher = more thermally stable than in G1/S.
In series [4] the test system is HeLa Kyoto. Nature of the series: solubility change mitosis vs G1/S (difference of NP-40 vs SDS log2 ratios) (log2 ratio difference); higher = more soluble in mitosis.
[5] abbreviates: cell cycle stage: early G1 (4.5 h after nocodazole release).
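Wherever melting temperature (median over replicates), in situ is given: HeLa Kyoto cells synchronized by double thymidine or nocodazole block, proteins quantified by TMT10plex mass spectrometry, three independent biological replicates.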
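Wherever solubility change mitosis vs G1/S (difference of NP-40 vs SDS log2 ratios) is given: synchronized HeLa Kyoto cells (double thymidine block for G1/S, nocodazole release for mitosis), protein amounts in NP-40 versus SDS lysates quantified by mass spectrometry, three biological replicates.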
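Wherever solubility in G1/S (NP-40 vs SDS abundance) is given: HeLa Kyoto cells arrested at G1/S by double thymidine block, proteins quantified by TMT10plex mass spectrometry in mild NP-40 versus SDS extracts, three biological replicates.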
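Wherever thermal stability score vs G1/S (z-score of summed log2 fold changes over temperatures) is given: synchronized HeLa Kyoto cells, proteins quantified by TMT10plex mass spectrometry, three biological replicates, mitosis taken 0.5 h after nocodazole release, G1/S directly after double thymidine block.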

With “MGEPQGSMRILVTGGSGLVGKAIQKVVADGAGLPGEDWVFVSSKDADLTDTAQTRALFEKVQPTHVIHLAAMVGGLFRNIKYNLDFWRKNVHMNDNVLHSAFEVGARKVVSCLSTCIFPDKTTYPIDETMIHNGPPHNSNFGYSYAKRMIDVQNRAYFQQYGCTFTAVIPTNVFGPHDNFNIEDGHVLPGLIHKVHLAKSSGSALTVWGTGNPRRQFIYSLDLAQLFIWVLREYNEVEPIILSVGEEDEVSIKEAAEAVVEAMDFHGEVTFDTTKSDGQFKKTASNSKLRTYLPDFRFTPFKQAVKETCAWFTDNYEQARK [TSTA3]”, the “solubility in G1/S (log2)” value in the series on HeLa Kyoto [1] is 0.141. The results for the melting temperature in the series on HeLa Kyoto [2] (cell cycle stage: G1/S) and in the series on HeLa Kyoto [2] (cell cycle stage: mitosis) were 59.3 °C and 58.2 °C, respectively. For the same sequence, the thermal stability score is -3.68 in the series on HeLa Kyoto [3] (setting [5]) and -2.17 in the series on HeLa Kyoto [3] (cell cycle stage: mitosis). For the same sequence, the “solubility change mitosis (log2)” value with HeLa Kyoto [4] is -0.116.

Take “MAGDSEQTLQNHQQPNGGEPFLIGVSGGTASGKSSVCAKIVQLLGQNEVDYRQKQVVILSQDSFYRVLTSEQKAKALKGQFNFDHPDAFDNELILKTLKEITEGKTVQIPVYDFVSHSRKEETVTVYPADVVLFEGILAFYSQEVRDLFQMKLFVDTDADTRLSRRVLRDISERGRDLEQILSQYITFVKPAFEEFCLPTKKYADVIIPRGADNLVAINLIVQHIQDILNGGPSKRQTNGCLNGYTPSRKRQASESSSRPH [UCK2]”: the “solubility in G1/S (log2)” value with HeLa Kyoto [1] was 0.28. Besides, the melting temperature with HeLa Kyoto [2] (cell cycle stage: G1/S) is 52.2 °C; with HeLa Kyoto [2] (cell cycle stage: mitosis), 52.9 °C. For the same sequence, the thermal stability score in the series on HeLa Kyoto [3] (setting [5]) was 0.367; in the series with HeLa Kyoto [3] (cell cycle stage: mitosis), -1.36. Also, the “solubility change mitosis (log2)” value in the series on HeLa Kyoto [4] worked out at 0.265.

Consider “MASEEASLRALESLMTEFFHDCTTNERKREIEELLNNFAQQIGAWRFCLYFLSSTRNDYVMMYSLTVFENLINKMWLGVPSQDKMEIRSCLPKLLLAHHKTLPYFIRNKLCKVIVDIGRQDWPMFYHDFFTNILQLIQSPVTTPLGLIMLKTTSEELACPREDLSVARKEELRKLLLDQVQTVLGLLTGILETVWDKHSVTAATPPPSPTSGESGDLLSNLLQSPSSAKLLNQPIPILDVESEYICSLALECLAHLFSWIPLSASITPSLLTTIFHFARFGCDIRARKMASVNGSSQNCVSGQERGRLGVLAMSCINELMSKNCVPMEFEEYLLRMFQQTFYLLQKITKDNNAHTVKSRLEELDESYIEKFTDFLRLFVSVHLRRIESYSQFPVVEFLTLLFKYTFHQPTHEGYFSCLDIWTLFLDYLTSKIKSRLGDKEAVLNRYEDALVLLLTEVLNRIQFRYNQAQLEELDDETLDDDQQTEWQRYLRQSLEVVAKVMELLPTHAFSTLFPVLQDNLEVYLGLQQFIVTSGSGHRLNITAENDCRRLHCSLRDLSSLLQAVGRLAEYFIGDVFAARFNDALTVVERLVKVTLYGSQIKLYNIETAVPSVLKPDLIDVHAQSLAALQAYSHWLAQYCSEVHRQNTQQFVTLISTTMDAITPLISTKVQDKLLLSACHLLVSLATTVRPVFLISIPAVQKVFNRITDASALRLVDKAQVLVCRALSNILLLPWPNLPENEQQWPVRSINHASLISALSRDYRNLKPSAVAPQRKMPLDDTKLIIHQTLSVLEDIVENISGESTKSRQICYQSLQESVQVSLALFPAFIHQSDVTDEMLSFFLTLFRGLRVQMGVPFTEQIIQTFLNMFTREQLAESILHEGSTGCRVVEKFLKILQVVVQEPGQVFKPFLPSIIALCMEQVYPIIAERPSPDVKAELFELLFRTLHHNWRYFFKSTVLASVQRGIAEEQMENEPQFSAIMQAFGQSFLQPDIHLFKQNLFYLETLNTKQKLYHKKIFRTAMLFQFVNVLLQVLVHKSHDLLQEEIGIAIYNMASVDFDGFFAAFLPEFLTSCDGVDANQKSVLGRNFKMDRDLPSFTQNVHRLVNDLRYYRLCNDSLPPGTVKL [XPO6]”, for which, in the series on HeLa Kyoto [1], the “solubility in G1/S (log2)” value was -0.281. Besides, the melting temperature with HeLa Kyoto [2] (cell cycle stage: G1/S) turned out to be 49.6 °C; in the series with HeLa Kyoto [2] (cell cycle stage: mitosis), 50 °C. The thermal stability score in the series on HeLa Kyoto [3] (setting [5]) is 0.528; in the series with HeLa Kyoto [3] (cell cycle stage: mitosis), 0.436. The “solubility change mitosis (log2)” value in the series on HeLa Kyoto [4] was -0.202.

With “MAFVPVIPESYSHVLAEFESLDPLLSALRLDSSRLKCTSIAVSRKWLALGSSGGGLHLIQKEGWKHRLFLSHREGAISQVACCLHDDDYVAVATSQGLVVVWELNQERRGKPEQMYVSSEHKGRRVTALCWDTAILRVFVGDHAGKVSAIKLNTSKQAKAAAAFVMFPVQTITTVDSCVVQLDYLDGRLLISSLTRSFLCDTEREKFWKIGNKERDGEYGACFFPGRCSGGQQPLIYCARPGSRMWEVNFDGEVISTHQFKKLLSLPPLPVITLRSEPQYDHTAGSSQSLSFPKLLHLSEHCVLTWTERGIYIFIPQNVQVLLWSEVKDIQDVAVCRNELFCLHLNGKVSHLSLISVERCVERLLRRGLWNLAARTCCLFQNSVIASRARKTLTADKLEHLKSQLDHGTYNDLISQLEELILKFEPLDSACSSRRSSISSHESFSILDSGIYRIISSRRGSQSDEDSCSLHSQTLSEDERFKEFTSQQEEDLPDQCCGSHGNEDNVSHAPVMFETDKNETFLPFGIPLPFRSPSPLVSLQAVKESVSSFVRKTTEKIGTLHTSPDLKVRPELRGDEQSCEEDVSSDTCPKEEDTEEEKEVTSPPPEEDRFQELKVATAEAMTKLQDPLVLFESESLRMVLQEWLSHLEKTFAMKDFSGVSDTDNSSMKLNQDVLLVNESKKGILDEDNEKEKRDSLGNEESVDKTACECVRSPRESLDDLFQICSPCAIASGLRNDLAELTTLCLELNVLNSKIKSTSGHVDHTLQQYSPEILACQFLKKYFFLLNLKRAKESIKLSYSNSPSVWDTFIEGLKEMASSNPVYMEMEKGDLPTRLKLLDDEVPFDSPLLVVYATRLYEKFGESALRSLIKFFPSILPSDIIQLCHHHPAEFLAYLDSLVKSRPEDQRSSFLESLLQPESLRLDWLLLAVSLDAPPSTSTMDDEGYPRPHSHLLSWGYSQLILHLIKLPADFITKEKMTDICRSCGFWPGYLILCLELERRREAFTNIVYLNDMSLMEGDNGWIPETVEEWKLLLHLIQSKSTRPAPQESLNGSLSDGPSPINVENVALLLAKAMGPDRAWSLLQECGLALELSEKFTRTCDILRIAEKRQRALIQSMLEKCDRFLWSQQA [HPS5]”, the “solubility in G1/S (log2)” value in the series on HeLa Kyoto [1] was -0.142. The melting temperature with HeLa Kyoto [2] (cell cycle stage: G1/S) amounted to 48.6 °C; in the series on HeLa Kyoto [2] (cell cycle stage: mitosis) it was 49.5 °C. The thermal stability score amounted to 1.53 with HeLa Kyoto [3] (setting [5]) and 1.55 in the series with HeLa Kyoto [3] (cell cycle stage: mitosis). In addition, in the series on HeLa Kyoto [4], the “solubility change mitosis (log2)” value was -0.108.

On to “MSWLSSSQGVVLTAYHPSGKDQTVGNSHAKAGEEATSSRRYGQYTMNQESTTIKVMEKPPFDRSISQDSLDELSMEDYWIELENIKKSSENSQEDQEVVVVKEPDEGELEEEWLKEAGLSNLFGESAGDPQESIVFLSTLTRTQAAAVQKRVETVSQTLRKKNKQYQIPDVRDIFAQQRESKETAPGGTESQSLRTNENKYQGRDDEASNLVGEEKLIPPEETPAPETDINLEVSFAEQALNQKESSKEKIQKSKGDDATLPSFRLPKDKTGTTRIGDLAPQDMKKVCHLALIELTALYDVLGIELKQQKAVKIKTKDSGLFCVPLTALLEQDQRKVPGMRIPLIFQKLISRIEERGLETEGLLRIPGAAIRIKNLCQELEAKFYEGTFNWESVKQHDAASLLKLFIRELPQPLLSVEYLKAFQAVQNLPTKKQQLQALNLLVILLPDANRDTLKALLEFLQRVIDNKEKNKMTVMNVAMVMAPNLFMCHALGLKSSEQREFVMAAGTANTMHLLIKYQKLLWTIPKFIVNQVRKQNTENHKKDKRAMKKLLKKMAYDREKYEKQDKSTNDADVPQGVIRVQAPHLSKVSMAIQLTEELKASDVLARFLSQESGVAQTLKKGEVFLYEIGGNIGERCLDDDTYMKDLYQLNPNAEWVIKSKPL [ARHGAP18]”, for which, in the series with HeLa Kyoto [1], the “solubility in G1/S (log2)” value is 0.188. Further, the melting temperature with HeLa Kyoto [2] (cell cycle stage: G1/S) and in the series on HeLa Kyoto [2] (cell cycle stage: mitosis) was 50 °C throughout. The thermal stability score in the series on HeLa Kyoto [3] (setting [5]) stood at 0.338; in the series with HeLa Kyoto [3] (cell cycle stage: mitosis) it was 0.693. The “solubility change mitosis (log2)” value in the series with HeLa Kyoto [4] was -0.128.
